Consider 1 molecule from US20240076386A1 (Pfizer, published 2024).

What is called IC50 is the concentration at which inhibition is half-maximal. The EC50 is the concentration at which the effect is half-maximal.

Assay [1] has as its target T1, recombinant histidine-tagged human E-selectin (Sino Biologicals; 13025-H08H) (human, UniProt P16581 22-556).
T1 construct: also called recombinant human E-selectin; soluble recombinant human E-selectin
T1 sequence (looked up): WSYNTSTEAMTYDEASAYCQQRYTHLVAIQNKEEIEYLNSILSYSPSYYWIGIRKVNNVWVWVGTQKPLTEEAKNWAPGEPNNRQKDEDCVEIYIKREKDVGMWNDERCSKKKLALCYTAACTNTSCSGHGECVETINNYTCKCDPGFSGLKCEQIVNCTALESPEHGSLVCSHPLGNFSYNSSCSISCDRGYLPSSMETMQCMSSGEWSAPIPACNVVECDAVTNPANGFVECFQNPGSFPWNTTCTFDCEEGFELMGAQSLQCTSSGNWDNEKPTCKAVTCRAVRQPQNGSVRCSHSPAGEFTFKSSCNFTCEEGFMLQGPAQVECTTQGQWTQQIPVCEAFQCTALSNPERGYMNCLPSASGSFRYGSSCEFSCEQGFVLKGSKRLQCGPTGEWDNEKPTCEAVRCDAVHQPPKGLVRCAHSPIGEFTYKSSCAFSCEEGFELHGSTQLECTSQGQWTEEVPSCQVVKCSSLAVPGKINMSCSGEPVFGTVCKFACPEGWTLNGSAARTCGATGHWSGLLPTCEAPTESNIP
Kind of assay: competition ELISA on soluble E-selectin vs sialyl Lewis A, further assays. Here is the method: (§1) Recombinant histidine-tagged E-selectin; cynomolgus monkey E-selectin (Sino Biologicals; 190169-C08H) and human E-selectin (Sino Biologicals; 13025-H08H) stock solutions were prepared to a final concentration of 3 μg/mL in phosphate buffered saline (PBS) without calcium and magnesium. One hundred μL per well of the diluted recombinant E-selectin protein was added into a Ni-NTA HisSorb 96 well plate (Qiagen, 35061) and plates were incubated on an orbital shaker at room temperature for 2 hours. Sialyl Lewis A polyacrylamide biotin, a synthetic E-selectin ligand (GlycoTech corporation 01-044), was conjugated to streptavidin HRP (horse radish peroxidase) (Ultra Streptavidin HRP, Thermo Scientific N504) and diluted in assay diluent containing 2 mM calcium chloride (BD OptEIA buffer; BD Biosciences, 555213).
(§2) Following the incubation, the plates were washed 5 times with 200 μL of wash buffer containing 2 mM of calcium chloride (50 mM TRIS [trisaminomethane]; 150 mM sodium chloride, 0.05% polysorbate 20, pH 7.4; 2 mM of calcium chloride). […] The final antibody concentration ranged from 200 nM to 0.09 nM and the final concentration of HRP conjugated Sialyl Lewis A was 5 μg/mL. […] Reactions were stopped with 100 μl of 2M sulfuric acid and absorbance read at 450 nm (Spectramax M5e). Data were analyzed and graphed using GraphPad Prism software (Version 8.0.2).
A general note: An ELISA detects its analyte on a solid surface through an enzyme-linked reagent.

Assay [2] has as its target T2, recombinant histidine-tagged cynomolgus monkey E-selectin (Sino Biologicals; 190169-C08H) (cynomolgus monkey, UniProt A0A2K5U7H9 22-554).
T2 construct: also called recombinant cynomolgus monkey E-selectin
T2 sequence: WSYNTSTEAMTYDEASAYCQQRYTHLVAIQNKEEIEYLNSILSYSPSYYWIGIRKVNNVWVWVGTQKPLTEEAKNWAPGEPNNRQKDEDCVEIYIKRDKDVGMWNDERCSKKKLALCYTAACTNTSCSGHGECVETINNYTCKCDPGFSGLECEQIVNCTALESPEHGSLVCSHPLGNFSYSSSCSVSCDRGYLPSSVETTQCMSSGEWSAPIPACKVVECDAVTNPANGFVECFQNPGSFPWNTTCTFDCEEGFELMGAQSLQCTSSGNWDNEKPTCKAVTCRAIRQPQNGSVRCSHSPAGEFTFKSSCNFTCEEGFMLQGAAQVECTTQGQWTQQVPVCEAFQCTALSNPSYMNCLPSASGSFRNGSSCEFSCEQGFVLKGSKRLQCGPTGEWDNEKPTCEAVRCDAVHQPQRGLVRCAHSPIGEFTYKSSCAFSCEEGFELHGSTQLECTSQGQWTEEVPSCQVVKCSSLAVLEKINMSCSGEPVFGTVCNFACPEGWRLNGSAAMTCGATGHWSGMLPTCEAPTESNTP
Described as above. On the procedure: as §1, §2

Assay [3] deals with T3, cynomolgus monkey E-selectin, cell-surface expressed (cynomolgus monkey, UniProt P16581 22-610 (human entry)).
T3 construct: also called CHO-cynomolgus monkey E-selectin cells; cynomolgus monkey CHO-E
T3 chain: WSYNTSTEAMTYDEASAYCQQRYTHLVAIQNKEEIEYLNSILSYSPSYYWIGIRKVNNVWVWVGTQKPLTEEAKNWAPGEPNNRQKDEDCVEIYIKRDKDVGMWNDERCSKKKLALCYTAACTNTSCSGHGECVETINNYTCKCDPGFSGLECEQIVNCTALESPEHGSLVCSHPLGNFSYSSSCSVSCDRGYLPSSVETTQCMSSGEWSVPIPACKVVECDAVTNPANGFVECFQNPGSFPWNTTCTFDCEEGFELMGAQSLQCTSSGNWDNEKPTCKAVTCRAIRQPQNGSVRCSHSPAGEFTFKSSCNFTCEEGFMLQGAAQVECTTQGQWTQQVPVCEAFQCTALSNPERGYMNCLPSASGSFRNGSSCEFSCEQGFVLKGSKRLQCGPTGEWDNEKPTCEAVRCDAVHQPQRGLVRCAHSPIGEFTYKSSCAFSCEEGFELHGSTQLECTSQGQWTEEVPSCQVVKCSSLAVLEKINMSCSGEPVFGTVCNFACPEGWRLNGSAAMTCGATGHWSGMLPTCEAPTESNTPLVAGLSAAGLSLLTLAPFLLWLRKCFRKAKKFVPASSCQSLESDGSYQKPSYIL
Kind of assay: flow cytometry, CHO cells, 6 experiments. Here is the method:
Binding studies with CHO cells were performed in duplicate using two rows of a 96-well round bottom plate, whereas, binding studies with primary endothelial cells were performed in a single row of a 96-well V-bottom plate. The plates were centrifuged at 300×g for 2 minutes at 4° C. and the cells were resuspended and blocked by incubation in the CHO buffer for 10 minutes on wet ice. After incubation, the cells were centrifuged at 300×g for 2 minutes at 4° C. to remove the buffer. […] After incubation with the antibody, the cells were washed three times by centrifugation at 300×g for 1 minute at 4° C. and resuspended in cold CHO buffer. The washed cells were resuspended and incubated with 100 μL of 1:1000 dilution of AlexaFluor647-conjugated goat anti-human F(ab′)₂ Fragment (Fcγ fragment specific antibody, [Jackson Innnnunoresearch, 109-606-170] for 45 minutes (CHO cells) or 30 minutes (endothelial cells) on wet ice. The cells were washed three or four times prior to resuspension in CHO buffer for flow cytometric analysis. A Becton Dickinson LSRFortessa instrument using 640 nanometer laser line was used to acquire cell fluorescence data. Geometric mean fluorescence of cells was analyzed by FlowJo software package (FlowJo, LLC) and plotted against antibody concentration. […]
(In general: In flow cytometry, cells or beads pass a laser one at a time.)

B1: optimized anti-E-selectin antibody 1444 (antibody, human IgG1, kappa, V domains shown)
VH: EVQLVESGGGLVQPGGSLRLSCAASGYAIRSAYMHWVRQAPGKGLEWVARIDPANGNTIYVDSVTGRFTISADNAKNSAYLQMNSLRAEDTAVYYCAMDLYSTSEYWGQGTLVTVSS
VL: DIQMTQSPSSLSASVGDRVTITCKTSQNIERYLNWYQQKPGKAPKLLIYAASSLQSGVPSRFSGSGSGTDFTLTISSLQPEDFATYFCLQDNAWPLTFGQGTKVEIKR
notes: effector-null human IgG1, kappa
On to B1, for which the IC50 amounted to 2.91 nM in assay [1] and 2.45 nM in assay [2]. Further, the concentration giving a half-maximal response (EC50) in assay [3] was 0.75 to 1.37 nM.
